According to patent US20040014658A1 (PROCHON BIOTECH, published 2004):

Target: L37M-W144G-FGF9 (human, UniProt P31371 38-208)
Test: ex vivo mouse femur growth with FGFR3 neutralizing Fab MSPRO-59 (inferred)
Protocol: Femoral bone cultures were performed by excising the hind limbs of wild type mice. The limbs were carefully cleaned from the surrounding tissue (skin and muscles) and the femora exposed. The femora were removed and further cleared from tissue remains and ligaments. The femora were measured for their initial length, using a binocular with an eyepiece micrometer ruler. […] In addition, the medium contains BSA (0.2%), β-glycerophosphate (1 mM) and freshly prepared ascorbic acid (50 μg/ml). The bones were cultured for 15 days. Measurements of bone length and medium replacement were performed every three days.

binding result: binds
B1: FGFR3 of wild type mouse femora (receptor)
chain: EPPGPEQRVVRRAAEVPGPEPSQQEQVAFGSGDTVELSCHPPGGAPTGPTVWAKDGTGLVASHRILVGPQRLQVLNASHEDAGVYSCQHRLTRRVLCHFSVRVTDAPSSGDDEDGEDVAEDTGAPYWTRPERMDKKLLAVPAANTVRFRCPAAGNPTPSISWLKNGKEFRGEHRIGGIKLRHQQWSLVMESVVPSDRGNYTCVVENKFGSIRQTYTLDVLERSPHRPILQAGLPANQTAILGSDVEFHCKVYSDAQPHIQWLKHVEVNGSKVGPDGTPYVTVLKTAGANTTDKELEVLSLHNVTFEDAGEYTCLAGNSIGFSHHSAWLVVLPAEEELMETDEAGSVYAGVLSYGVVFFLFILVVAAVILCRLRSPPKKGLGSPTVHKVSRFPLKRQVSLESNSSMNSNTPLVRIARLSSGEGPVLANVSELELPADPKWELSRTRLTLGKPLGEGCFGQVVMAEAIGIDKDRTAKPVTVAVKMLKDDATDKDLSDLVSEMEMMKMIGKHKNIINLLGACTQGGPLYVLVEYAAKGNLREFLRARRPPGMDYSFDACRLPEEQLTCKDLVSCAYQVARGMEYLASQKCIHRDLAARNVLVTEDNVMKIADFGLARDVHNLDYYKKTTNGRLPVKWMAPEALFDRVYTHQSDVWSFGVLLWEIFTPGGPSPYPGIPVEELFKLLKEGHRMDKPASCTHDLYMIMRECWHAVPSQRPTFKQLVEDLDRILTVTSTDEYLDLSVPFEQYSPGGQDTPSSSSSGDDSVFTHDLLPPGPPSNGGPRT
notes: whole, on cells; Endogenous receptor in bone tissue culture
